According to patent US20240279281A1, “Peptide Inhibitors of Interleukin-23 Receptor” (Janssen Pharmaceutica NV, priority 2023, published 2024):
Blank lines part the entries; values can stand above or below the binder they belong to. Starred links: 1 amine or outer side, 2 acyl side, 3 side chain; linkers in the order of their positions; H or OH if unused. Positions of bridges follow the written chain, without caps; N, C: chain ends. Non-standard residues stand in square brackets, D forms with d. No end group written: not given here. N,N‑dimethylasparagine = N,N-dimethylasparagine, CN(C)C(=O)C[C@H](N[*:1])C(=O)[*:2]; 2Nal(6-OH) = N[C@@H](Cc1ccc2cc(O)ccc2c1)C(=O)O; Trp(7-Me) = Cc1cccc2c(C[C@H](N)C(=O)O)c[nH]c12; d(hLys(Me3)) = C[N+](C)(C)CCCCC[C@@H](N)C(=O)O; AEF = NCCOc1ccc(C[C@H](N)C(=O)O)cc1; 3Pal = N[C@@H](Cc1cccnc1)C(=O)O; Pen = CC(C)(S)[C@H](N)C(=O)O; lipid = not defined here; Thp = NC1(C(=O)O)CCOCC1; Sar = CNCC(=O)O

Biological target: T1, interleukin-23 receptor (IL-23R), Q5VWK5
T1 chain: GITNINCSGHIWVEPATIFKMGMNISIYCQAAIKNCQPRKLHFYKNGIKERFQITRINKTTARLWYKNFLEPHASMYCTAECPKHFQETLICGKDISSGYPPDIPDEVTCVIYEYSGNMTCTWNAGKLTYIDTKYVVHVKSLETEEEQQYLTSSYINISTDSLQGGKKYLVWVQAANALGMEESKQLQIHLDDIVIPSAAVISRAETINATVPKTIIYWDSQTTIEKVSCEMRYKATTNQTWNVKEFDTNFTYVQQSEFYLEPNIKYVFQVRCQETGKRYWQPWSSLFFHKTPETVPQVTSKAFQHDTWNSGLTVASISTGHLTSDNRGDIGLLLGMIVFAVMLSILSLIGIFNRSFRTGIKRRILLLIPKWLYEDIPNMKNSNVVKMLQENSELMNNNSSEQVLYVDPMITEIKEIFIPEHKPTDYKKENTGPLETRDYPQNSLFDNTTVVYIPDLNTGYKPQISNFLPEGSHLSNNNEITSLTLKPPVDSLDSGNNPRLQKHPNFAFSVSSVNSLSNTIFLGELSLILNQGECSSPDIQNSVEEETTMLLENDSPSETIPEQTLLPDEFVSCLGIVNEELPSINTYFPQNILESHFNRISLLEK
Test: cell-based or functional assay

B1: SEQ ID NO: 239 (peptide)
peptide: [d(hLys(Me3))][Pen][N,N‑dimethylasparagine]T[Trp(7-Me)]K(lipid)[Pen][AEF][2Nal(6-OH)][Thp]EN[3Pal][Sar]
modifications: disulfide 2-7 (inferred); ends not checked; also: Lys6 lipidated, lipid not given here
- PBMC pSTAT3 IC50: < 1 nM

B3: SEQ ID NO: 254 (peptide)
peptide: R[Pen]NT[Trp(7-Me)]K(Ac)[Pen][2‑amino‑3‑(4-(2-aminoethoxy)phenyl)propanoic acid][2‑amino‑3‑(6-hydroxynaphthalen-2-yl)propanoic acid][Thp]K(Ac)N[3Pal][Sar]K
modifications: disulfide 2-7 (inferred); not fully specified (residue 15); ends not checked; also: K15: lipidated lysine, lipid not given here
- PBMC pSTAT3 IC50: < 1 nM

B4: SEQ ID NO: 244 (peptide)
peptide: R[Pen]NT[Trp(7-Me)]K(Ac)[Pen][AEF][2Nal(6-OH)][Thp]EN[3Pal][Sar]K(lipid)
modifications: disulfide 2-7 (inferred); ends not checked; also: Lys15 lipidated, lipid not given here
- PBMC pSTAT3 IC50: < 1 nM

B5: SEQ ID NO: 255 (peptide)
peptide: R[Pen]NT[Trp(7-Me)]K(Ac)[Pen][2‑amino‑3‑(4-(2-aminoethoxy)phenyl)propanoic acid][2‑amino‑3‑(6-hydroxynaphthalen-2-yl)propanoic acid][Thp]K(Ac)N[3Pal][Sar]K
modifications: disulfide 2-7 (inferred); not fully specified (residue 15); ends not checked; also: K15: lipidated lysine, lipid not given here
- PBMC pSTAT3 IC50: < 1 nM

Binder: [(R)‑3‑carboxy‑2‑(4-(((R)-5-carboxy-5-hydrazineylpentyl)amino)-4-oxobutanamido)‑N,N,N‑trimethylpropan‑1‑aminium][Pen]NT[Trp(7-Me)]K(Ac)[Pen][2‑amino‑3‑(4-(2-aminoethoxy)phenyl)propanoic acid][2‑amino‑3‑(6-hydroxynaphthalen-2-yl)propanoic acid][Thp]EN[3Pal][Sar] (disulfide 2-7 (inferred); ends not checked) [SEQ ID NO: 264]
- PBMC pSTAT3 IC50: < 10 pM

B7: SEQ ID NO: 241 (peptide)
peptide: [Pen]NT[Trp(7-Me)]K(Ac)[Pen][AEF][2Nal(6-OH)][Thp]K(Ac)N[3Pal][Sar]K(lipid)
modifications: disulfide 1-6 (inferred); ends not checked; also: Lys14 lipidated, lipid not given here
- PBMC pSTAT3 IC50: < 1 nM

Binder: [(R)‑3‑carboxy‑2‑(4-(((R)-5-carboxy-5-hydrazineylpentyl)amino)-4-oxobutanamido)‑N,N,N‑trimethylpropan‑1‑aminium][Pen]NT[Trp(7-Me)]K(Ac)[Pen][2‑amino‑3‑(4-(2-aminoethoxy)phenyl)propanoic acid][2‑amino‑3‑(6-hydroxynaphthalen-2-yl)propanoic acid][Thp]EN[3Pal][Sar] (disulfide 2-7 (inferred); ends not checked) [SEQ ID NO: 263]
- PBMC pSTAT3 IC50: < 1 nM

B8: SEQ ID NO: 256 (peptide)
peptide: [Pen]NT[Trp(7-Me)]K(Ac)[Pen][2‑amino‑3‑(4-(2-aminoethoxy)phenyl)propanoic acid][2‑amino‑3‑(6-hydroxynaphthalen-2-yl)propanoic acid][Thp]K(Ac)N[3Pal][Sar]K
modifications: disulfide 1-6 (inferred); not fully specified (residue 14); ends not checked; also: K14: lipidated lysine, lipid not given here
- PBMC pSTAT3 IC50: < 1 nM

B10: SEQ ID NO: 72 (peptide)
peptide: [Pen]NT[Trp(7-Me)]K(Ac)[Pen][AEF][2Nal(6-OH)][Thp]K(Ac)N[3Pal][Sar]K
modifications: not fully specified (bridges); ends and bridges not checked; also: K14: lipidated lysine, lipid not given here
- IL23R Reporter Assay IC50: < 10 nM

Second part, the binder after the results:

- PBMC pSTAT3 IC50: < 1 nM
B2: SEQ ID NO: 269 (peptide)
peptide: R[Pen]NT[Trp(7-Me)]K(Ac)[Pen][2‑amino‑3‑(4-(2-aminoethoxy)phenyl)propanoic acid][2‑amino‑3‑(6-hydroxynaphthalen-2-yl)propanoic acid][Thp]EN[3Pal][Sar]K
modifications: disulfide 2-7 (inferred); not fully specified (residue 15); ends not checked; also: K15: lipidated lysine

- PBMC pSTAT3 IC50: < 0.1 nM
Binder: [(R)‑3‑carboxy‑2‑(4-(((R)-5-carboxy-5-hydrazineylpentyl)amino)-4-oxobutanamido)‑N,N,N‑trimethylpropan‑1‑aminium][Pen]NT[Trp(7-Me)]K(Ac)[Pen][2‑amino‑3‑(4-(2-aminoethoxy)phenyl)propanoic acid][2‑amino‑3‑(6-hydroxynaphthalen-2-yl)propanoic acid][Thp]EN[3Pal][Sar] (disulfide 2-7 (inferred); ends not checked) [SEQ ID NO: 266]

- PBMC pSTAT3 IC50: < 1 nM
B6: SEQ ID NO: 267 (peptide)
peptide: [Pen]NT[Trp(7-Me)]K(Ac)[Pen][2‑amino‑3‑(4-(2-aminoethoxy)phenyl)propanoic acid][2‑amino‑3‑(6-hydroxynaphthalen-2-yl)propanoic acid][Thp]K(Ac)N[3Pal][Sar]K
modifications: disulfide 1-6 (inferred); not fully specified (residue 14); ends not checked; also: K14: lipidated lysine

- PBMC pSTAT3 IC50: < 1 nM
Binder: [(R)‑3‑carboxy‑2‑(4-(((R)-5-carboxy-5-hydrazineylpentyl)amino)-4-oxobutanamido)‑N,N,N‑trimethylpropan‑1‑aminium][Pen]NT[Trp(7-Me)]K(Ac)[Pen][2‑amino‑3‑(4-(2-aminoethoxy)phenyl)propanoic acid][2‑amino‑3‑(6-hydroxynaphthalen-2-yl)propanoic acid][Thp]EN[3Pal][Sar] (disulfide 2-7 (inferred); ends not checked) [SEQ ID NO: 265]

- PBMC pSTAT3 IC50: < 1 nM
Binder: [Pen]NT[Trp(7-Me)]K(Ac)[Pen][2‑amino‑3‑(4-(2-aminoethoxy)phenyl)propanoic acid][2‑amino‑3‑(6-hydroxynaphthalen-2-yl)propanoic acid][Thp]K(Ac)N[3Pal][Sar]K(lipid) (disulfide 1-6 (inferred); ends not checked; also: K14: lipidated lysine) [SEQ ID NO: 271]

- PBMC pSTAT3 IC50: < 1 nM
B9: SEQ ID NO: 268 (peptide)
peptide: K[Pen]NT[Trp(7-Me)]K(Ac)[Pen][2‑amino‑3‑(4-(2-aminoethoxy)phenyl)propanoic acid][2‑amino‑3‑(6-hydroxynaphthalen-2-yl)propanoic acid][Thp]EN[3Pal][Sar]
modifications: disulfide 2-7 (inferred); not fully specified (residue 1); ends not checked; also: K1: lipidated lysine
